Values of other authors as cited in article doi:10.1101/2023.01.28.526057v3 (bioRxiv, 2023).

Conditions: rat modeling parameter, Table S7, column PBS

liraglutide
t1/2 in SC: 0.9504 min
